Results published in publication PMC4063175.

Target: Src13-GCN4-eGFP/mCherry
Experiment: PIE-FCCS

Src13-GCN4-eGFP/mCherry was tested, and the fc (fraction correlated), mean was 0.25 and the fc (fraction correlated), median was 0.23.
